According to US20140287419A1, “Compositions Having Dicamba Decarboxylase Activity and Methods of Use” (priority 2013, published 2014):
Substitutions are numbered along the chain they refer to.

B1: 33 (protein, listed as Rhizobium leguminosarum)
chain: MAQGKIALEEHFAIPETLQDSAGFVPGDYWKELSARLLDIQEKRLRLMDAHGIEKMILSLNAPAVQAIPDRAKALEISRRANDFLAEQCVKNPNRFLGFAALPLQDPDAATQELQRCVTTMGFVGALVNGFSQEGDGTTPLYYDLPQYRSFWAEVEKLNVPFYLHPRNPLPQDSRIYAGHSWLMGPTWAFAQETAVHALRLMGSGLFDEHPALRIIVGHMGEGLPYMMWRIDNRNAWVKVEKSYPAKRPIADYFNENFYITTSGNFRTQSLIDAMLEIGADRILFSADWPFENIDHAANWFDSATISEADRLKIGRTNAVSLFKLDR
B2: 34 (protein)
chain: MAQGKIGLEEHFAIPETLNDSAGFVPGDYWKELSRRLLDIQDDRLRQMDENGMEMMLLSLNAPAVQAVPDRKQACELAVRANDFLAEQVSRRPDRFQALAALPLQDPDFATVELTRCVNELGMRGALVNGFSQIDTPDNVVYYDAPQYASFWAAVEKLDVPFYLHPRNPIASWAQIYDGHPWLLGPTWAFGQETAVHALRLMASGLFDRHPALQIVLGHLGEGLPYSLWRIDNRNAWVKAPKTHPAKKTFRHYFQQNFHLTTSGNFHNQTLIDAILEIGADRILFSTDWPFENIDHAAKWFDSASISEADRTKIGRTNAMKLFKLVA
modifications: Cupriavidus necator
B3: SEQ ID NO:19: 2,3-dihydroxybenzoic acid decarboxylase, putative, Talaromyces marneffei ATCC 18224 (protein, listed as Talaromyces marneffei)
chain: MATPIITLEEHYISSAIRDASETDHYAVFPSQIISKLNTLSTERLQDLDNGHVSLQVISHGPGAQPPYLCQAANDELASAISANPTRFAGFALLPIAEPQLAVQELERCITQHKFVGALIDNHTNGQFYDDQKFWPVFEKAQELDAPIYVHPSYPDEESGVAAHYRGNYDDRIAAALGAYGWGWHSDTALSILRLFAAGLFDTYPNIKIIIGHMGEMLPFQLERVIGIASRFGRSRGLREVWTQNIWVTTSGMFALAPLACLLQTMPIERVLYSVDYPFSANEKGFAFLEEIKKSGLIKEGEDWERFLYKNAQELLKVNV
B4: 3 (protein, listed as Lactobacillus plantarum)
chain: MAKLITVEEHFESAAVTAAMRQAVGNAVLPAVSPALRQYMRDNLPSPAIMQDTQHERLAFMAQYGIDMQVLSYGNSSPQNLSPEQAVPLSQLANDELAKAVVAHPDRYAGLAVLPVGDPQAAVAELNRAVTTLGLRGVLLKGNYQNKFFDEPFFLPIFEAAAALDVPVYFHPSFIPQAVTSHYFESNQWSDVVTGILSSAGYGWHMDVGIQVIRMIASGIFDKLPGLKLISGHWGELVPLFLERLDDELTTYTDLQYPFSTYYRHNVYVTPSGILSAPQLQFMLAEMGADHLMYSIDYPYKQPETSGSFLDIADLTDEQRAQIAFGTATTLFKL
B5: 38 (protein, listed as Variovorax paradoxus)
chain: MAQGKIGLEEHFAIPQTLQDSAGFVPGVYWKELSSRLLDIHDGRLRQMDEHGMEMMILSLNAPAVQAVADPVKAYELAVRANDFLAEQVAKRPDRFQAFAALPMQDPEKATQELERCMSVLGFRGALVNGFSQVGTPDNVAYYDAPQYAPFWAAAERLDAPFYLHPRNPIASWAQIYEGHPWLLGPTWAFAQETAVHALRLMASGLFDRHPGLKIILGHLGEGLPYNMWRVDHRNAWVKAPKGYPAKRKLCEYFQENFYLTTSGNFRTQTLIDAMLEVGSDRILFSTDWPFENIDHASNWFNDTSISEADRKKIGRTNAMSLFKLA
B6: SEQ ID NO:16: possible o-pyrocatechuate decarboxylase, Staphylococcus aureus subsp. aureus TCH60 (protein, listed as Staphylococcus aureus)
chain: MAQNNMEANQMKSITFEEHYVIEDIQKETMNAISADPKGVPMKVMLEGLEKKTGFTNADELSHHDERIQFMNNQDVQIQVLSYGNGSPSNLVGQKAIELCQKANDQLANYIAQYPNRFVGFATLPINEPETAAREFERCINDLGFKGALIMGRAQDGFLDQDKYDIIFKTAENLGVPIYLHPAPVNSDIYQSYYKGNYPEVTAATFACFGYGWHIDVGIHAIHLVLSGIFDRYPKLNMIIGHWGEFIPFFLERMDEALFAEHLNHPVSYYFKNNFYITPSGMLTKPQFDLVKKEAGIDRILYAADYPYIEPEKLGVFLDELGLTDEEKEKISYTNGAKLLGLSSNN
B7: 40 (protein, listed as Rhodococcus jostii)
chain: MAQGKIALEEHFAIPETLNDSAGFVPGTYWDELQARLLDIQDVRLKLMDEHNIETMILSLNAPAVQAIPERERAIDIARRANDVLAEECAKRPDRFRGFAALPLQDPDAAAEELRRCVTELGFVGALVNGFSQSATVDGGSTPLYYDLPRYRPFWAEVERLDVPFYLHPRNPLNQDARIYEGHPWLLGPTWAFAQETAVHALRLMASGLFDEHPGLRIVLGHMGEGIPAMLWRIDHRNAWVDVPPAYPAKRRMVDYFTENFFVTTSGNFRTQTLIDLLLELGSERVMFSTDWPFENINHAAEWFDAASISEADRLKIGRTNAATLFKLDR
B8: 35 (protein)
chain: MAFKASRKIALEEHFAIDATVQDSAGFVPPSYWAELKRRLLDIHDRRIDEMDRNGVELMVLSLNAPTVQAVPNIKDAYDLSRRANDFLAEQIVKRPERFKGFAALPMQSPDLAARELERCVKELNFVGALVNGFSQVEESGTALYYDLPQYRQFWSVVQALDVPFYLHPRNPLPAHAPIYEGHPWLLGPTWAFGQETAVHALRLMGSGLFDEYPELKIILGHMGEGLPYSMWRIDNRNAWVETQPNYPAKKRIAEYFHKNFWLTTSGNFRTQTLIDAMLEIGSDRILFSTDWPFENVDHAAQWFDDAAISENDRIKIARTNAARLFKLEP
modifications: Burkholderia sp
B9: SEQ ID NO:26: o-pyrocatechuate decarboxylase, Variovorax paradoxus EPS (protein, listed as Variovorax paradoxus)
chain: MATHMAPMKNKIALEEHFAIDLTIADSQVYARPEVWQGLKSNLLDFEQQRLEKMDEWGTEFSILSLNSPAVQGIPDAKRAIEVAQRANDVLAEQVKRHPTRFGGFAALPMQDPEASARELERCVNQLGFHGFLVNGFSQVGDENIVVYYDDARFNDFWTAAAALKKPFYMHPRDPLLAREPIYDGAHWLTGPTWAFAMETAIHALRLMSSGMFDRHPALQMILGHFGEGIPFNIWRVDHILRKGRRGMPCDKEIGEYLRSNVHITTSGNFRTPTLLSTMLEVGSDRIMYSVDYPFEKHEDAARWFDTCEISENDRQKIGRDNARKLFGLK
B10: 37 (protein, listed as Burkholderia gladioli)
chain: MATFSNVKKIALEEHFAIAETIEDSAGFVPPDDWVELRGRLLDIQERRLAEMDRAGIELMVLSLNAPAVQAIRDPRQAVELARRANDYLAEQVARRPDRFRAFAALPMQAPEQAIREAERCVRELGFVGALVNGFSEAEDGAELYYDLPRYRPFWAALEALEVPFYLHPRNPLAGRAPIYDGHSWLMGPTWAFGQETAVHALRLMGSGLFDAHPRLQIILGHMGEGLPYSMWRVDNRNAWVSAKPNYPAEKPIAEYFRNNFWLTTSGNFRTQTLIDAMLEIGSDRILFSADWPFENMDHAADWFDHASISENDRIKIGRGNAERLLKLGR
B11: SEQ ID NO:22: possible o-pyrocatechuate decarboxylase, Staphylococcus epidermidis M23864: W1 (protein, listed as Staphylococcus epidermidis)
chain: MAKSINFEEHYVVDDIQKETMKYMSSDPNGVPMQTMLKGLEQKSGFTNADDITKHDERIKFMDEHDVEMQVLSYGNGAPSNLEGERAIELCQQANDTLAKYVNEHPDRFVGFATLPINEPQAAVEEFKRCIKELGFKGALIMGHPKNGFLDQDQYDDLFATAEALNVPIYLHPSPVQSDVYQAYYKGNYSDVTAATFACFGYGWHVDVGIHAIHLVLSGVFDRHPNLNMIIGHWGEFVPFFLERMDDILFADHLEHPISYYFKNNFYITPSGMLTKPQFDLVKAEVGVDRILYSADYPYVEPDKLGTFLDELDLTEEEKEKISYKNGAKLLGLEK
B12: SEQ ID NO:21: reversible 2,6-dihydroxybenzoic acid decarboxylase, Agrobacterium tumefaciens (protein, listed as Agrobacterium tumefaciens)
chain: MAQGKVALEEHFAIPETLQDSAGFVPGDYWKELQHRLLDIQDTRLKLMDAHGIETMILSLNAPAVQAIPDRKKAIEIARRANDVLAEECARRPDRFLAFAALPLQDPDAATQELQRCVNDLGFVGALVNGFSQEGDGQTPLYYDLPQYRPFWGEVEKLDVPFYLHPRNPLPQDSRIYDGHPWLLGPTWAFAQETAVHALRLMASGLFDAHPRLNIILGHMGEGLPYMMWRIDHRNAWVKLPPRYPAKRRFVDYFNENFHITTSGNFRTQTLIDAILEIGADRILFSTDWPFENIDHASDWFNATTIAEADRVKIGRTNARRLFKLDGR
B13: 36 (protein, listed as Agrobacterium sp.)
chain: B12 chain with K31T, R71K, K72T, V84A, R91K, D94N, T139I, A209E, N302H, T305S
B14: 39 (protein, listed as Agrobacterium fabrum)
chain: MAQGKVALEEHFAIPETLQDSAGFVPGDCWTELQHRLLDIQDTRLKLMDAHGIETMILSLNAPAVQAIPDKTKAIEIARRANDALAEECAKRPDRFLAFAALPLQDPDAATQELRRCVNDLGFVGALVNGFSQEGDGQTPLYYDLPQYRPFWGEVEKLDVPFYLHPRNPLPQDSRIYDGHPWLLGPTWAFAQETAVHALRLMASGLFDEHPRLDIILGHMGEGLPYMMWRIDHRNAWVKLPPRYPAKRRFVDYFNENFHITTSGNFRTQTLIDAILEIGADRILFSTDWPFENIDHASDWFHATSIAEADRVKIGRTNARRLFKLDGR

Test: 14C assay with IPTG-induced recombinant E. coli cells (14CO2 capture from [14C]-carboxyl-labeled dicamba)
Settings: for Dicamba Decarboxylase Activity: IPTG-induced recombinant E. coli cells, [14C]-carboxyl-labeled dicamba, 14CO2 capture; for Enzymatic Detection level: dicamba decarboxylation activity of the protein of the given SEQ ID NO; for decarboxylation activity of dicamba: E. coli cell assay, 108 sequences tested

Molecule	Dicamba Decarboxylase Activity	Enzymatic Detection level	decarboxylation activity of dicamba
B1	High	High	–
B2	High	High	–
B3	–	–	showed decarboxylation activity of dicamba
B4	Low	Low	–
B5	Low	Low	–
B6	–	–	showed decarboxylation activity of dicamba
B7	Low	Low	–
B8	High	High	–
B9	–	–	showed decarboxylation activity of dicamba
B10	Low	Low	–
B11	–	–	showed decarboxylation activity of dicamba
B12	–	–	showed decarboxylation activity of dicamba
B13	High	High	–
B14	No	No	–
